Read-outs that look alike come from different tables or passages of the source. Square brackets hold non-standard residues; d marks the D form. hPhe = N[C@@H](CCc1ccccc1)C(=O)O; Nle = CCCC[C@H](N)C(=O)O; Dap = NC[C@H](N)C(=O)O
Assays:
Experiment in all cases: cell-based or functional assay
[1] = target: T1, mouse melanocortin-1 receptor (mouse, UniProt Q01727 1-315)
[2] = target: mouse melanocortin-5 receptor (mouse, UniProt P41149 1-325)
[3] = target: mouse melanocortin-3 receptor (mouse, UniProt P33033 1-323)
[4] = target: mouse melanocortin-4 receptor (mouse, UniProt P56450 1-332)
[5] = target: T1, mouse melanocortin-1 receptor; remark: listed apart in the source

Sequence of mouse melanocortin-5 receptor (P41149 whole entry): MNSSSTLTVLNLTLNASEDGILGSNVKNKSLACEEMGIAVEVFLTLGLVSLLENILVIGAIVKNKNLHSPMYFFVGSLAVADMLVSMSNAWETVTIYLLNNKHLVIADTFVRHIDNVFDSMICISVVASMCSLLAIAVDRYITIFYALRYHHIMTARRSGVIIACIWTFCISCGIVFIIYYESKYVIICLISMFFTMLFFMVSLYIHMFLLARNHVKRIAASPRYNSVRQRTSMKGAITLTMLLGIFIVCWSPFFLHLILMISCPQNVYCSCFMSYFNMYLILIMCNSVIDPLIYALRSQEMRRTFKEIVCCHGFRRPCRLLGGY
Sequence of mouse melanocortin-4 receptor (P56450 whole entry): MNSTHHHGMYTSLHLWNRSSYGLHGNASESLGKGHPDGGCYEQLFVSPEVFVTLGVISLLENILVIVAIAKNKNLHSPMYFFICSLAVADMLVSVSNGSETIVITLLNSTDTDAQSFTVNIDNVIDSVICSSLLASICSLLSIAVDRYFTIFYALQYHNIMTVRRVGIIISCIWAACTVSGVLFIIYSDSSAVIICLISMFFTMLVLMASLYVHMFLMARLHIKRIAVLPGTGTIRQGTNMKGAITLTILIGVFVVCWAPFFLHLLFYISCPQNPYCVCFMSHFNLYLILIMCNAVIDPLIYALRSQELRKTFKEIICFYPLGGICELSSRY
T1 sequence (Q01727 whole entry): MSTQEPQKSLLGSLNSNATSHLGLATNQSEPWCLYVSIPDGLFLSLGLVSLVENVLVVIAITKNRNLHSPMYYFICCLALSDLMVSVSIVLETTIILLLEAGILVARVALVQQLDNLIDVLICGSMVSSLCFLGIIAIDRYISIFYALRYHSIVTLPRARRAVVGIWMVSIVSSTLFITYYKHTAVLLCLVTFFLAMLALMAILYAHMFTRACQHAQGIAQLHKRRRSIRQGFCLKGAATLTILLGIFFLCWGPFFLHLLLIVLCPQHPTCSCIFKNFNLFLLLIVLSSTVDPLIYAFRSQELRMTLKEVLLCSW
Sequence of mouse melanocortin-3 receptor (P33033 whole entry): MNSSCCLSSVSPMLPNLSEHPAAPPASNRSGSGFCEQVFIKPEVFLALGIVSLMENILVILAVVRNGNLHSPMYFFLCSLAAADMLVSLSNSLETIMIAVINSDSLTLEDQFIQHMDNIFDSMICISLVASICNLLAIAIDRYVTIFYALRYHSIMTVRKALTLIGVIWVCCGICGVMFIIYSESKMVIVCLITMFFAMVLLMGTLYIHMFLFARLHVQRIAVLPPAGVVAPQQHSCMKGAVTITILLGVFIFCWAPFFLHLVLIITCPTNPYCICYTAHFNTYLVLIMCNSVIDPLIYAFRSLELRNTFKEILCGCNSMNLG

agonist EC50 (cAMP AlphaScreen) [1] | EC50 (cAMP AlphaScreen, inverse agonist) [2] | antagonist pA2 (Schild, agonist NDP-MSH) [3] | antagonist pA2 (Schild, agonist NDP-MSH) [4] | % receptor stimulation at 100 µM (cAMP AlphaScreen) [1] | partial agonist, % receptor stimulation [1] | agonist EC50 (cAMP AlphaScreen) [5] | partial agonist efficacy, % of NDP-MSH [5] | Binder
> 100000 nM | > 100 µM | 7.1 | 9 |  |  |  |  | cyclo(PRFFRSF[dP]) (SMILES N=C(N)NCCC[C@@H]1NC(=O)[C@H](Cc2ccccc2)NC(=O)[C@H](Cc2ccccc2)NC(=O)[C@H](CCCNC(=N)N)NC(=O)[C@@H]2CCCN2C(=O)[C@H]2CCCN2C(=O)[C@H](Cc2ccccc2)NC(=O)[C@H](CO)NC1=O) [c[Pro-Arg-Phe-Phe-Arg-Ser-Phe-DPro]]
> 100000 nM | > 100 µM | 6.5 | 9.1 |  |  |  |  | cyclo(PRFF[Dap]S[Nle][dP]) (SMILES CCCC[C@@H]1NC(=O)[C@H](CO)NC(=O)[C@H](CN)NC(=O)[C@H](Cc2ccccc2)NC(=O)[C@H](Cc2ccccc2)NC(=O)[C@H](CCCNC(=N)N)NC(=O)[C@@H]2CCCN2C(=O)[C@H]2CCCN2C1=O) [c[Pro-Arg-Phe-Phe-Dap-Ser-Nle-DPro]]
 | > 100 µM | 7.7 | 8.8 | 30% |  |  |  | cyclo(PRF[hPhe]RSF[dP]) (SMILES N=C(N)NCCC[C@@H]1NC(=O)[C@H](CCc2ccccc2)NC(=O)[C@H](Cc2ccccc2)NC(=O)[C@H](CCCNC(=N)N)NC(=O)[C@@H]2CCCN2C(=O)[C@H]2CCCN2C(=O)[C@H](Cc2ccccc2)NC(=O)[C@H](CO)NC1=O) [c[Pro-Arg-Phe-hPhe-Arg-Ser-Phe-DPro]]
> 100000 nM | > 100 µM | 6.7 | 9.5 |  |  |  |  | cyclo(PRF[hPhe][Dap]S[Nle][dP]) (SMILES CCCC[C@@H]1NC(=O)[C@H](CO)NC(=O)[C@H](CN)NC(=O)[C@H](CCc2ccccc2)NC(=O)[C@H](Cc2ccccc2)NC(=O)[C@H](CCCNC(=N)N)NC(=O)[C@@H]2CCCN2C(=O)[C@H]2CCCN2C1=O) [c[Pro-Arg-Phe-hPhe-Dap-Ser-Nle-DPro]]
190 nM | > 100 µM | 7.1 | 9 |  |  |  |  | cyclo(PRFF[Dap]A[Nle][dP]) (SMILES CCCC[C@@H]1NC(=O)[C@H](C)NC(=O)[C@H](CN)NC(=O)[C@H](Cc2ccccc2)NC(=O)[C@H](Cc2ccccc2)NC(=O)[C@H](CCCNC(=N)N)NC(=O)[C@@H]2CCCN2C(=O)[C@H]2CCCN2C1=O) [c[Pro-Arg-Phe-Phe-Dap-Ala-Nle-DPro]]
> 100000 nM | > 100 µM | 7.5 | 9.1 |  |  |  |  | cyclo(PRFFRA[Nle][dP]) (SMILES CCCC[C@@H]1NC(=O)[C@H](C)NC(=O)[C@H](CCCNC(=N)N)NC(=O)[C@H](Cc2ccccc2)NC(=O)[C@H](Cc2ccccc2)NC(=O)[C@H](CCCNC(=N)N)NC(=O)[C@@H]2CCCN2C(=O)[C@H]2CCCN2C1=O) [c[Pro-Arg-Phe-Phe-Arg-Ala-Nle-DPro]]
> 100000 nM | > 100 µM | 6.7 | 9.1 |  |  |  |  | cyclo(PRF[hPhe][Dap]A[Nle][dP]) (SMILES CCCC[C@@H]1NC(=O)[C@H](C)NC(=O)[C@H](CN)NC(=O)[C@H](CCc2ccccc2)NC(=O)[C@H](Cc2ccccc2)NC(=O)[C@H](CCCNC(=N)N)NC(=O)[C@@H]2CCCN2C(=O)[C@H]2CCCN2C1=O) [c[Pro-Arg-Phe-hPhe-Dap-Ala-Nle-DPro]]
 | > 100 µM | 6.5 | 8.6 | 40% |  |  |  | cyclo(PRF[hPhe]NSF[dP]) (SMILES N=C(N)NCCC[C@@H]1NC(=O)[C@@H]2CCCN2C(=O)[C@H]2CCCN2C(=O)[C@H](Cc2ccccc2)NC(=O)[C@H](CO)NC(=O)[C@H](CC(N)=O)NC(=O)[C@H](CCc2ccccc2)NC(=O)[C@H](Cc2ccccc2)NC1=O) [c[Pro-Arg-Phe-hPhe-Asn-Ser-Phe-DPro]]
> 100000 nM | > 100 µM | 6.3 | 9.2 |  |  |  |  | cyclo(PRF[hPhe]NS[Nle][dP]) (SMILES CCCC[C@@H]1NC(=O)[C@H](CO)NC(=O)[C@H](CC(N)=O)NC(=O)[C@H](CCc2ccccc2)NC(=O)[C@H](Cc2ccccc2)NC(=O)[C@H](CCCNC(=N)N)NC(=O)[C@@H]2CCCN2C(=O)[C@H]2CCCN2C1=O) [c[Pro-Arg-Phe-hPhe-Asn-Ser-Nle-DPro]]
400 nM | > 100 µM | 7.9 | 9.5 |  |  |  |  | cyclo(PRF[hPhe]RS[Nle][dP]) (SMILES CCCC[C@@H]1NC(=O)[C@H](CO)NC(=O)[C@H](CCCNC(=N)N)NC(=O)[C@H](CCc2ccccc2)NC(=O)[C@H](Cc2ccccc2)NC(=O)[C@H](CCCNC(=N)N)NC(=O)[C@@H]2CCCN2C(=O)[C@H]2CCCN2C1=O) [c[Pro-Arg-Phe-hPhe-Arg-Ser-Nle-DPro]]
 | > 100 µM |  |  |  |  |  |  | cyclo(PRF[hPhe]NA[Nle][dP]) (SMILES CCCC[C@@H]1NC(=O)[C@H](C)NC(=O)[C@H](CC(N)=O)NC(=O)[C@H](CCc2ccccc2)NC(=O)[C@H](Cc2ccccc2)NC(=O)[C@H](CCCNC(=N)N)NC(=O)[C@@H]2CCCN2C(=O)[C@H]2CCCN2C1=O) [c[Pro-Arg-Phe-hPhe-Asn-Ala-Nle-DPro]]
 | > 100 µM | 8 | 8.9 | 25% |  |  |  | cyclo(PRF[hPhe]RAF[dP]) (SMILES C[C@@H]1NC(=O)[C@H](CCCNC(=N)N)NC(=O)[C@H](CCc2ccccc2)NC(=O)[C@H](Cc2ccccc2)NC(=O)[C@H](CCCNC(=N)N)NC(=O)[C@@H]2CCCN2C(=O)[C@H]2CCCN2C(=O)[C@H](Cc2ccccc2)NC1=O) [c[Pro-Arg-Phe-hPhe-Arg-Ala-Phe-DPro]]
600 nM | > 100 µM | 7.4 | 8.7 |  | 25% |  |  | cyclo(PRFFRAF[dP]) [c[Pro-Arg-Phe-Phe-Arg-Ala-Phe-DPro]]
> 100000 nM | > 100 µM | 7.1 | 9.6 |  |  |  |  | cyclo(PRFFRS[Nle][dP]) (SMILES CCCC[C@@H]1NC(=O)[C@H](CO)NC(=O)[C@H](CCCNC(=N)N)NC(=O)[C@H](Cc2ccccc2)NC(=O)[C@H](Cc2ccccc2)NC(=O)[C@H](CCCNC(=N)N)NC(=O)[C@@H]2CCCN2C(=O)[C@H]2CCCN2C1=O) [c[Pro-Arg-Phe-Phe-Arg-Ser-Nle-DPro]]
600 nM | > 100 µM | 6.8 | 9.1 |  | 85% |  |  | cyclo(PRFF[Dap]SF[dP]) (SMILES N=C(N)NCCC[C@@H]1NC(=O)[C@@H]2CCCN2C(=O)[C@H]2CCCN2C(=O)[C@H](Cc2ccccc2)NC(=O)[C@H](CO)NC(=O)[C@H](CN)NC(=O)[C@H](Cc2ccccc2)NC(=O)[C@H](Cc2ccccc2)NC1=O) [c[Pro-Arg-Phe-Phe-Dap-Ser-Phe-DPro]]
 |  |  |  |  |  | 1300 nM | 85% | cyclo(P[dR][dF][dF]NAF[dP]) [c[Pro-DArg-DPhe-DPhe-Asn-Ala-Phe-DPro]]
 | > 100 µM | 7.2 | 9.2 | 40% |  |  |  | cyclo(PRF[hPhe][Dap]SF[dP]) (SMILES N=C(N)NCCC[C@@H]1NC(=O)[C@@H]2CCCN2C(=O)[C@H]2CCCN2C(=O)[C@H](Cc2ccccc2)NC(=O)[C@H](CO)NC(=O)[C@H](CN)NC(=O)[C@H](CCc2ccccc2)NC(=O)[C@H](Cc2ccccc2)NC1=O) [c[Pro-Arg-Phe-hPhe-Dap-Ser-Phe-DPro]]
2600 nM |  | 6.6 | 8.5 |  | 75% |  |  | cyclo(PRFFNS[Nle][dP]) (SMILES CCCC[C@@H]1NC(=O)[C@H](CO)NC(=O)[C@H](CC(N)=O)NC(=O)[C@H](Cc2ccccc2)NC(=O)[C@H](Cc2ccccc2)NC(=O)[C@H](CCCNC(=N)N)NC(=O)[C@@H]2CCCN2C(=O)[C@H]2CCCN2C1=O) [c[Pro-Arg-Phe-Phe-Asn-Ser-Nle-DPro]]
560 nM | > 100 µM | 7.1 |  |  | 70% |  |  | PRFFXAFP (head-to-tail cyclic; hPhe at 4; Dap at 5; DPro at 8) [c[Pro-Arg-Phe-hPhe-Dap-Ala-Phe-DPro]]
> 100000 nM | > 100 µM | 7.5 | 8.8 |  |  |  |  | cyclo(PRF[hPhe]RA[Nle][dP]) (SMILES CCCC[C@@H]1NC(=O)[C@H](C)NC(=O)[C@H](CCCNC(=N)N)NC(=O)[C@H](CCc2ccccc2)NC(=O)[C@H](Cc2ccccc2)NC(=O)[C@H](CCCNC(=N)N)NC(=O)[C@@H]2CCCN2C(=O)[C@H]2CCCN2C1=O) [c[Pro-Arg-Phe-hPhe-Arg-Ala-Nle-DPro]]
